Measured values from patent US20200079850A1 (SUTRO BIOPHARMA, published 2020).

T1: hLAG3 (Acro Biosystems), SPR analyte (human, UniProt P18627 23-450)
T1 construct: also called human LAG3 kinetics
T1 sequence: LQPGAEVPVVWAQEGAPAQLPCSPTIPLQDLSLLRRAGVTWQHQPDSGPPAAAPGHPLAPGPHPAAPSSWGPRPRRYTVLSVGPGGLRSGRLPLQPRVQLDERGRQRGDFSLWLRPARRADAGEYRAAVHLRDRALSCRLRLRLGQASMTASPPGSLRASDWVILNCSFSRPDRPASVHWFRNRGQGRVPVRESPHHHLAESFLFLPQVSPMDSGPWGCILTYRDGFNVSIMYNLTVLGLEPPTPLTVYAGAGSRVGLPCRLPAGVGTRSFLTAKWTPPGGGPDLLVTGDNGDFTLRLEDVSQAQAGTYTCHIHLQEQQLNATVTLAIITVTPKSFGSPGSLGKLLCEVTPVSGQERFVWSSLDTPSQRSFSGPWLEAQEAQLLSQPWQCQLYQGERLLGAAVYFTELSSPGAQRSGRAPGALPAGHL


How the values were obtained:
[1] = biological target: T2, rabbit Fc-tagged recombinant human PD1 (rhPD1-rabbit Fc) (human, UniProt Q15116 25-167, limits assumed); assay: flow cytometry competition: inhibition of rhPD1-rabbit Fc binding to human PD-L1 on CHO cells; PE anti-rabbit IgG detection
T2 construct: also called recombinant human PD-1 protein
T2 sequence (Q15116 25-167 limits assumed): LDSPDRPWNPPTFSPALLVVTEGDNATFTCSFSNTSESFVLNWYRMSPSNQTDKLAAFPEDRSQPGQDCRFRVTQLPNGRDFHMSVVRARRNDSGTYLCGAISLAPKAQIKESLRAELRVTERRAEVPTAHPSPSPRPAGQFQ
Description: (§1) CHO-k cells stably expressing human PD-L1 or PD-L2 were used to measure the ability of anti-PD1/LAG3 bi-specific antibody constructs to block rabbit Fc-tagged recombinant human PD1 (rhPD1-rabbit Fc) protein binding. Cells were seeded at 100,000 cells/well in 100 μL of FACS buffer in 96-well polypropylene plates. The cells were centrifuged and resuspended with test antibodies (2× concentration) diluted in FACS buffer, immediately followed by equal volume of rhPD1-rabbit Fc (added at 2× concentration; 0.2 ng/mL and 0.1 ng/mL final for PD-L1 and PD-L2, respectively). Cells were incubated on ice for 1 hour and washed twice. rhPD1-rabbit Fc binding on CHO-human PD-L1 or PD-L2 cells was detected with R-Phycoerythrin AffiniPure F(ab′)₂ Fragment Goat Anti-Rabbit IgG (H+L) (1:200 dilution, Jackson ImmunoResearch) for 30 minutes. The cells were washed twice with FACS buffer, fixed in 4% paraformaldehyde in PBS for 20 mins on ice in the dark, washed twice with FACS buffer, and analyzed using the BD LSR II Flow Cytometer. Data were analyzed using FlowJo (FlowJo, LLC; Ashland, Oreg.) to determine mean fluorescence intensities. Prism 6 software was used to create one site, specific binding with Hill slope curves (Log transform) to determine IC₅₀ values.

[2] = biological target: T1, hLAG3 (Acro Biosystems), SPR analyte; assay: SPR (Biacore), antibody captured by anti-Fc, hLAG3 as analyte, 25 C
Description: (§2) Anti-Fc polyclonal antibodies were immobilized onto a CMS chip (GE Life Sciences) using amine coupling chemistry (from Amine Coupling Kit, GE Life Sciences). The immobilization steps were carried out at a flow rate of 25 μl/min in 1×HBS-EP+buffer (GE Life Sciences; 10× Stock diluted before use). The sensor surfaces were activated for 7 min with a mixture of NHS (0.05 M) and EDC (0.2 M). The Anti-Fc antibodies were injected over all 4 flow cells at a concentration of 25 ug/ml in 10 mM sodium acetate, pH 4.5, for 7 min. Ethanolamine (1 M, pH 8.5) was injected for 7 min to block any remaining activated groups. An average of 12,000 response units (RU) of capture antibody was immobilized on each flow cell.
(§3) Kinetic binding experiments were performed at 25° C. using 1×HBS-EP+buffer. Test and control antibodies were injected over the anti-Fc surface at concentrations of 5-10 μg/mL for 12 seconds at a flow rate of 10 μl/min on flow cells 2, 3 and 4, followed by a buffer wash for 30 seconds at the same flow rate. Kinetic characterization of antibody samples was carried out with a dilution series of antigen and 1 injection of 0 nM antigen. After capturing ligand (antibody) on the anti-Fc surface, the analyte (hPD1 or hLAG3, Acro Biosystems, Newark, Del.) was bound at 100, 25, 6.25 and 0 nM for 180 seconds, followed by a 450 second dissociation phase at a flow rate of 50 μl/min. Between each ligand capture and analyte binding cycle, regeneration was carried out using 2 injections of 10 mM Glycine pH 2.0 for 30 seconds at 30 μL/min, followed by a 30 second buffer wash step.
(§4) The data was fit with the Biacore T200 Evaluation software, using a 1:1 Langmuir binding model. KD (affinity, nM) was determined as a ratio of the kinetic rate constants calculated from the fits of the association and dissociation phases.

[3] = biological target: T2, rabbit Fc-tagged recombinant human PD1 …; assay: flow cytometry competition: inhibition of rhPD1-rabbit Fc binding to human PD-L2 on CHO cells; PE anti-rabbit IgG detection
Description: as §1

[4] = biological target: T3, human PD-1 expressed on the surface of CHO cells (human, UniProt Q15116 25-288); assay: flow cytometry cell binding on CHO cells expressing human PD-1; PE anti-human IgG detection; one site-specific binding with Hill slope fit
T3 construct: I took it as human PD-1; also called CHO-PD1
T3 sequence (Q15116 25-288 limits assumed): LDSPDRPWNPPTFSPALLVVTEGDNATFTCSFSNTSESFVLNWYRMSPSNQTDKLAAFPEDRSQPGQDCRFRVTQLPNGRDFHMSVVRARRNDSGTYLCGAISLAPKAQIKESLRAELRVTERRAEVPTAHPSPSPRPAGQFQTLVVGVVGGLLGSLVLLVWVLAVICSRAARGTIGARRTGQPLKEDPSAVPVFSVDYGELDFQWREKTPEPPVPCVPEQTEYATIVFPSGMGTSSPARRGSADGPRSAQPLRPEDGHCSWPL
Description: CHO-k cells stably expressing PD-1 or LAG3 (human or cynomolgus) on the cell surface were used to assess binding affinity of anti-PD-1/LAG3 bispecific antibody constructs. Cells were seeded at 100,000 cells/well in 100 μL of FACS buffer (1×PBS, 0.5% BSA, 0.1% sodium azide) in 96-well polypropylene plates. The cells were centrifuged at 1.5K rpm and resuspended with test antibodies diluted in FACS buffer and incubated on ice for 1 hour. The cells were washed twice with FACS buffer and incubated on ice for 30 mins with R-Phycoerythrin-AffiniPure F(ab′)2 Fragment Goat Anti-Human IgG (H+L) secondary detection antibody (1:200 dilution, Jackson ImmunoResearch Laboratories, West Grove, Pa.). The cells were washed twice with FACS buffer, fixed in 4% paraformaldehyde in PBS (Santa Cruz Biotechnology; Dallas, Tex.) for 20 mins on ice in the dark, washed twice with FACS buffer, and analyzed using the BD LSR II Flow Cytometer (BD Biosciences; San Jose, Calif.). Data were analyzed using FlowJo (FlowJo, LLC; Ashland, Oreg.) to determine mean fluorescence intensities. Binding constants were calculated using the statistical software, GraphPad Prism (GraphPad Software; La Jolla, Calif.) using the nonlinear regression equation, one site—specific binding with Hill slope. The secondary antibody by itself was used as a control.

[5] = biological target: T4, hPD1 (Acro Biosystems), SPR analyte (human, UniProt Q15116 25-167); assay: SPR (Biacore), antibody captured by anti-Fc, hPD1 as analyte, 25 C
T4 construct: also called human PD1 kinetics
T4 sequence (Q15116 25-167 limits assumed): as the sequence (Q15116 25-167 limits assumed) above
Description: as §2, §3, §4

| IC50 [1] [nM] | Kd [2] [nM] | koff [2] [s⁻¹] | kon [2] [M⁻¹ s⁻¹] | IC50 [3] [nM] | Bmax [4] [MFI] | Kd [4] [nM] | Kd [5] [nM] | koff [5] [s⁻¹] | kon [5] [M⁻¹ s⁻¹] | Binder |
| --- | --- | --- | --- | --- | --- | --- | --- | --- | --- | --- |
| 4.7 | 0.0944 | 0.000138 | 1.46e+06 | 3.3 | 1970 | 4.3 | 4.37 | 0.00487 | 1.12e+06 | PD-1/LAG3 Bi-specific Construct B: aPD1 1353-G10 scFvFc zwB R28T/P30D/H31S V262E; aLAG3 1449-G09.2 Fab zwA V262E (bispecific antibody, human IgG1, kappa, The N-terminal Met is not included) scFv: EVQLVQSGAEVKKPGASVKVSCKASGYTFDSYGISWVRQAPGQGLEWMGWISAYNGNTNYAQKLQGRVTMTTDTSTNTAYMELRSLRSDDTAVYYCARDVDYGTGSGYWGQGTLVTVSSGGGGSGGGGSGGGGSSYELTQPPSVSVSPGQTARITCSGDALPKQYAYWYQQKPGQAPVMVIYKDTERPSGIPERFSGSSSGTKVTLTISGVQAEDEADYYCQSADNSITYRVFGGGTKVTVLAAGSDQEPKSSDKTHTCPPCPAPELLGGPSVFLFPPKPKDTLMISRTPEVTCEVVDVSHEDPEVKFNWYVDGVEVHNAKTKPREEQYNSTYRVVSVLTVLHQDWLNGKEYKCKVSNKALPAPIEKTISKAKGQPREPQVYVLPPSREEMTKNQVSLLCLVKGFYPSDIAVEWESNGQPENNYLTWPPVLDSDGSFFLYSKLTVDKSRWQQGNVFSCSVMHEALHNHYTQKSLSLSPGK heavy: not shown light: not shown |
| 2.4 | 0.519 | 0.000694 | 1.34e+06 | 1.5 | 3660 | 1.5 | 1.29 | 0.000649 | 503000 | PD-1/LAG3 Bi-specific Construct C: aPD1 1353-G10 Vk1-39LC scFvFc zwB V262E; aLAG3 1449-G09.2 Fab zwA V262E (bispecific antibody, human IgG1, kappa, The N-terminal Met is not included) scFv: EVQLVQSGAEVKKPGASVKVSCKASGYRFPHYGISWVRQAPGQGLEWMGWISAYNGNTNYAQKLQGRVTMTTDTSTNTAYMELRSLRSDDTAVYYCARDVDYGTGSGYWGQGTLVTVSSGGGGSGGGGSGGGGSDIQLTQSPSSLSASVGDRVTITCSGDALPKQYAYWYQQKPGKAPKLLIYKDTERPSGVPSRFSGSSSGTKVTLTISSLQPEDFATYYCQSADNSITYRVFGGGTKVEIKAAGSDQEPKSSDKTHTCPPCPAPELLGGPSVFLFPPKPKDTLMISRTPEVTCEVVDVSHEDPEVKFNWYVDGVEVHNAKTKPREEQYNSTYRVVSVLTVLHQDWLNGKEYKCKVSNKALPAPIEKTISKAKGQPREPQVYVLPPSREEMTKNQVSLLCLVKGFYPSDIAVEWESNGQPENNYLTWPPVLDSDGSFFLYSKLTVDKSRWQQGNVFSCSVMHEALHNHYTQKSLSLSPGK heavy: not shown light: not shown |
